Results published in publication PMC2175135.

Target: LexA-tpr-met-Gab1Cter Y473F Y590F (two-hybrid bait) (UniProt Q9QYY0)
Test: two-hybrid

## COOH-terminal SH2 domain of p85α PI(3)K (two-hybrid prey) (from UniProt P26450 624-718) (domain or fragment)
  percent of the interaction with Gab1Cter: 25%
